B1: chimeric ATAR extracellular domain-Fc fusion protein (Fc fusion, UniProt Q92956 39-202, looked up)
chain: LPSCKEDEYPVGSECCPKCSPGYRVKEACGELTGTVCEPCPPGTYIAHLNGLSKCLQCQMCDPAMGLRASRNCSRTENAVCGCSPGHFCIVQDGDHCAACRAYATSSPGQRVQKGGTESQDTLCQNCPPGTFSPNGTLEECQHQTKCSWLVTKAGAGTSSSHWV
notes: extracellular domain; also called sATAR-Fc; ATAR-Fc fusion protein; not shown: human IgG1 Fc domain
B2: recombinant human OPG [22-201]-Fc fusion protein (Fc fusion, UniProt O00300 22-201, looked up)
chain: ETFPPKYLHYDEETSHQLLCDKCPPGTYLKQHCTAKWKTVCAPCPDHYYTDSWHTSDECLYCSPVCKELQYVKQECNRTHNRVCECKEGRYLEIEFCLKHRSCPPGFGVVQAGTPERNTVCKRCPDGFFSNETSSKAPCRKHTNCSVFGLLLTQKGNATHDNICSGNSESTQKCGIDVTL
notes: construct described in U.S. Ser. No. 08/706,945; also called OPG-Fc; OPG Fc fusion protein; not shown: human IgG1 Fc domain
B3: recombinant mouse OPG [22-194]-Fc fusion protein (Fc fusion, UniProt O08712 22-194, looked up)
chain: ETLPPKYLHYDPETGHQLLCDKCAPGTYLKQHCTVRRKTLCVPCPDHSYTDSWHTSDECVYCSPVCKELQSVKQECNRTHNRVCECEEGRYLEIEFCLKHRSCPPGSGVVQAGTPERNTVCKKCPDGFFSGETSSKAPCIKHTNCSTFGLLLIQKGNATHDNVCSGNREATQK
notes: also called OPG-Fc; not shown: Fc domain, detected with anti-human IgG
B4: murine OPG binding protein (full length, 316 aa, encoded by clone 32D-F3), on the cell surface (ligand)
chain: MRRASRDYGKYLRSSEEMGSGPGVPHEGPLHPAPSAPAPAPPPAASRSMFLALLGLGLGQVVCSIALFLYFRAQMDPNRISEDSTHCFYRILRLHENAGLQDSTLESEDTLPDSCRRMKQAFQGAVQKELQHIVGPQRFSGAPAMMEGSWLDVAQRGKPEAQPFAHLTINAASIPSGSHKVTLSSWYHDRGWAKISNMTLSNGKLRVNQDGFYYLYANICFRHHETSGSVPTDYLQLMVYVVKTSIKIPSSHNLMKGGSTKNWSGNSEFHFYSINVGGFFKLRAGEEISIQVSNPSLLDPDQDATYFGAFKVQDID
notes: Type II transmembrane protein; also called OPGbp; OPG-bp

Experiments:
[1] = target: B4; assay: immunostaining of COS-7 cells transfected with 32D-F3
Protocol: Arrayed pools of 32D cDNA expression library were individually lipofected into COS-7 cultures, then assayed for the acquisition of a cell surface OPG binding protein. To do this, COS-7 cells were plated at a density of 1×10⁶ per ml in six-well tissue culture plates (Costar), then cultured overnight in DMEM (Gibco) containing 10% FCS. Approximately 2 μg of plasmid DNA from each pool was diluted into 0.5 ml of serum-free DMEM, then sterilized by centrifugation through a 0.2 μm Spin-X column (Costar). Simultaneously, 10 μl of Lipofectamine (Life Technologies Cat # 18324-012) was added to a separate tube containing 0.5 ml of serum-free DMEM. The DNA and Lipofectamine solutions were mixed, and allowed to incubate at RT for 30 min. The COS-7 cell cultures were then washed with serum-free DMEM, and the DNA-lipofectamine complexes were exposed to the cultures for 2-5 hr at 37° C. After this period, the media was removed, and replaced with DMEM containing 10% FCS. The cells were then cultured for 48 hr at 37° C.
Using this approach, a total of approximately 300,000 independent 32D cDNA clones were screened, represented by 300 transfected pools of 1000 clones each. A single well was identified that contained cells which acquired the ability to be specifically decorated by the OPG-Fc fusion protein. […]

[2] = target: B4; assay: staining of 32D cells with 5 ug/ml OPG-Fc and PE anti-human IgG, FACS
purified human IgG1 Fc = target: T1, purified human IgG1 Fc (human, UniProt P01857-1 104-330 = IgG part, limits assumed); assay: staining of 32D cells, FACS
T1 construct: domain: Fc
Protocol: Cell lines that grew as adherent cultures in vitro were treated using the following methods: Cells were plated into 24 well tissue culture plates (Falcon), then allowed to grow to approximately 80% confluency. The growth media was then removed, and the adherent cultures were washed with phosphate buffered saline (PBS) (Gibco) containing 1% fetal calf serum (FCS). […] The OPG-Fc fusion protein solution was discarded, and the cells were washed in PBS-FCS solution as described above. The cultures were then exposed to phycoeyrthrin-conguated goat F(ab′) anti-human IgG secondary antibody (Southern Biotechnology Associates Cat. # 2043-09) diluted into PBS-FCS. After a 30-45 min incubation at 0° C., the solution was discarded, and the cultures were washed as described above. The cells were then analyzed by immunofluorescent microscopy to detect cell lines which express a cell surface OPG binding protein.
Suspension cell cultures were analyzed in a similar manner with the following modifications: The diluent and wash buffer consisted of calcium- and magnesium-free phosphate buffered saline containing 1% FCS. […] The cells were then analyzed by fluorescence activated cell sorting (FACS) using a Becton Dickinson FACscan.

Binder | binding result [2] | also measured
B1 | – | binding result [1]: no binding
B2 | binds | –
B3 | binds | –
B4 | – | binding result (purified human IgG1 Fc): no binding

Reference: patent US20050003400A1 (Amgen, published 2005)
